T1: EsCas13d, nuclease-dead (Eubacterium siraeum, UniProt B0MS50, R295A;H300A;R849A;H854A)
T1 sequence: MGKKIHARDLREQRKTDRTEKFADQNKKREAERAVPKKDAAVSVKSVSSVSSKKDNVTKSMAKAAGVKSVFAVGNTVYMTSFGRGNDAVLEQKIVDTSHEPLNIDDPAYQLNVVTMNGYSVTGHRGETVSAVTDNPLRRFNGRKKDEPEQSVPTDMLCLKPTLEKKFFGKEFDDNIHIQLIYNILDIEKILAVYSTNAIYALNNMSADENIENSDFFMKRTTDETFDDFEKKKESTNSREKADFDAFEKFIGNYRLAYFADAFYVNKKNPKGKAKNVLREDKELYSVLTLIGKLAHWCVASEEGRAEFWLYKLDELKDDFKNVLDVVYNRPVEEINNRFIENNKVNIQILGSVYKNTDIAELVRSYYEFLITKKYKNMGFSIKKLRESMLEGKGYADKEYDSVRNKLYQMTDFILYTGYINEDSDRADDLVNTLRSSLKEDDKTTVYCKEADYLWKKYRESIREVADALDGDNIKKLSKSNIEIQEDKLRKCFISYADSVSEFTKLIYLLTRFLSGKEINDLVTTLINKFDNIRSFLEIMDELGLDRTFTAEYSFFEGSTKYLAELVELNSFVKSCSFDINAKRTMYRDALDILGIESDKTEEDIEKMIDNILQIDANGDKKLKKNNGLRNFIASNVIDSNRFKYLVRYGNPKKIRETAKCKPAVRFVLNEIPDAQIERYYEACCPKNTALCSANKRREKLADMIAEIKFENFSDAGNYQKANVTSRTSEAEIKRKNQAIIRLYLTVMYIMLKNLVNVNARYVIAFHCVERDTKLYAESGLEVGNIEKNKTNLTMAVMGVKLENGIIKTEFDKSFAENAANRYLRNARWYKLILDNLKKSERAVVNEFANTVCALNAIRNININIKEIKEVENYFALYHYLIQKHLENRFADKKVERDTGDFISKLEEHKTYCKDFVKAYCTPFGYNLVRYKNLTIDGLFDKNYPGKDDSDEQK

B1: target 1 C6A,U11A (mixed)
RNA 1: CACCCGUGCAAAAAUGCAGGGGUCUAAAACUGAGCGGAUAACCUCUCUAUGG
RNA 2: GGGAAUGGAUCCACAUCUACGAAUUCGUACCAUAGAGAGGAUAUCAGCUCACCGAGAUCGGAAGAGCACACGU
B2: target 1 G17A,A18U (mixed)
RNA 1: CACCCGUGCAAAAAUGCAGGGGUCUAAAACUGAGCGGAUAACCUCUCUAUGG
RNA 2: GGGAAUGGAUCCACAUCUACGAAUUCGUACCAUUAAGAGGUUAUCCGCUCACCGAGAUCGGAAGAGCACACGU
B3: target 1 insC 3' of 15,insU 3' of 13 (mixed)
RNA 1: CACCCGUGCAAAAAUGCAGGGGUCUAAAACUGAGCGGAUAACCUCUCUAUGG
RNA 2: GGGAAUGGAUCCACAUCUACGAAUUCGUACCAUAGAGCAGUGUUAUCCGCUCACCGAGAUCGGAAGAGCACACGU
B4: target 1 insC 3' of 20,insA 3' of 10 (mixed)
RNA 1: CACCCGUGCAAAAAUGCAGGGGUCUAAAACUGAGCGGAUAACCUCUCUAUGG
RNA 2: GGGAAUGGAUCCACAUCUACGAAUUCGUACCACUAGAGAGGUUAAUCCGCUCACCGAGAUCGGAAGAGCACACGU
B5: target 1 C7G,A14C (mixed)
RNA 1: CACCCGUGCAAAAAUGCAGGGGUCUAAAACUGAGCGGAUAACCUCUCUAUGG
RNA 2: GGGAAUGGAUCCACAUCUACGAAUUCGUACCAUAGAGCGGUUAUGCGCUCACCGAGAUCGGAAGAGCACACGU
B6: target 1 A1G,G17A (mixed)
RNA 1: CACCCGUGCAAAAAUGCAGGGGUCUAAAACUGAGCGGAUAACCUCUCUAUGG
RNA 2: GGGAAUGGAUCCACAUCUACGAAUUCGUACCAUAAAGAGGUUAUCCGCUCGCCGAGAUCGGAAGAGCACACGU
B7: target 1 C6G,U10C (mixed)
RNA 1: CACCCGUGCAAAAAUGCAGGGGUCUAAAACUGAGCGGAUAACCUCUCUAUGG
RNA 2: GGGAAUGGAUCCACAUCUACGAAUUCGUACCAUAGAGAGGUCAUCGGCUCACCGAGAUCGGAAGAGCACACGU
B8: target 1 insG 3' of 7,insA 3' of 5 (mixed)
RNA 1: CACCCGUGCAAAAAUGCAGGGGUCUAAAACUGAGCGGAUAACCUCUCUAUGG
RNA 2: GGGAAUGGAUCCACAUCUACGAAUUCGUACCAUAGAGAGGUUAUCGCGACUCACCGAGAUCGGAAGAGCACACGU
B9: target 1 G17A (mixed)
RNA 1: CACCCGUGCAAAAAUGCAGGGGUCUAAAACUGAGCGGAUAACCUCUCUAUGG
RNA 2: GGGAAUGGAUCCACAUCUACGAAUUCGUACCAUAAAGAGGUUAUCCGCUCACCGAGAUCGGAAGAGCACACGU
B10: target 1 C7G,U8A (mixed)
RNA 1: CACCCGUGCAAAAAUGCAGGGGUCUAAAACUGAGCGGAUAACCUCUCUAUGG
RNA 2: GGGAAUGGAUCCACAUCUACGAAUUCGUACCAUAGAGAGGUUAAGCGCUCACCGAGAUCGGAAGAGCACACGU
B11: target 1 U8G,G17C (mixed)
RNA 1: CACCCGUGCAAAAAUGCAGGGGUCUAAAACUGAGCGGAUAACCUCUCUAUGG
RNA 2: GGGAAUGGAUCCACAUCUACGAAUUCGUACCAUACAGAGGUUAGCCGCUCACCGAGAUCGGAAGAGCACACGU
B12: target 1 del8,del19 (mixed)
RNA 1: CACCCGUGCAAAAAUGCAGGGGUCUAAAACUGAGCGGAUAACCUCUCUAUGG
RNA 2: GGGAAUGGAUCCACAUCUACGAAUUCGUACCAAGAGAGGUUACCGCUCACCGAGAUCGGAAGAGCACACGU
B13: target 1 A9U,A16C (mixed)
RNA 1: CACCCGUGCAAAAAUGCAGGGGUCUAAAACUGAGCGGAUAACCUCUCUAUGG
RNA 2: GGGAAUGGAUCCACAUCUACGAAUUCGUACCAUAGCGAGGUUUUCCGCUCACCGAGAUCGGAAGAGCACACGU
B14: target 1 insU 3' of 7,insU 3' of 4 (mixed)
RNA 1: CACCCGUGCAAAAAUGCAGGGGUCUAAAACUGAGCGGAUAACCUCUCUAUGG
RNA 2: GGGAAUGGAUCCACAUCUACGAAUUCGUACCAUAGAGAGGUUAUCUCGCUUCACCGAGAUCGGAAGAGCACACGU
B15: target 1 del8,del14 (mixed)
RNA 1: CACCCGUGCAAAAAUGCAGGGGUCUAAAACUGAGCGGAUAACCUCUCUAUGG
RNA 2: GGGAAUGGAUCCACAUCUACGAAUUCGUACCAUAGAGGGUUACCGCUCACCGAGAUCGGAAGAGCACACGU
B16: target 1 C7U,G15U (mixed)
RNA 1: CACCCGUGCAAAAAUGCAGGGGUCUAAAACUGAGCGGAUAACCUCUCUAUGG
RNA 2: GGGAAUGGAUCCACAUCUACGAAUUCGUACCAUAGAUAGGUUAUUCGCUCACCGAGAUCGGAAGAGCACACGU
B17: target 1 del5,del7 (mixed)
RNA 1: CACCCGUGCAAAAAUGCAGGGGUCUAAAACUGAGCGGAUAACCUCUCUAUGG
RNA 2: GGGAAUGGAUCCACAUCUACGAAUUCGUACCAUAGAGAGGUUAUCCUCACCGAGAUCGGAAGAGCACACGU
B18: target 1 insA 3' of 22,insC 3' of 17 (mixed)
RNA 1: CACCCGUGCAAAAAUGCAGGGGUCUAAAACUGAGCGGAUAACCUCUCUAUGG
RNA 2: GGGAAUGGAUCCACAUCUACGAAUUCGUACACAUAGCAGAGGUUAUCCGCUCACCGAGAUCGGAAGAGCACACGU
B19: target 1 insC 3' of 18,insG 3' of 4 (mixed)
RNA 1: CACCCGUGCAAAAAUGCAGGGGUCUAAAACUGAGCGGAUAACCUCUCUAUGG
RNA 2: GGGAAUGGAUCCACAUCUACGAAUUCGUACCAUACGAGAGGUUAUCCGCGUCACCGAGAUCGGAAGAGCACACGU
B20: target 1 insG 3' of 19,insA 3' of 3 (mixed)
RNA 1: CACCCGUGCAAAAAUGCAGGGGUCUAAAACUGAGCGGAUAACCUCUCUAUGG
RNA 2: GGGAAUGGAUCCACAUCUACGAAUUCGUACCAUGAGAGAGGUUAUCCGCUACACCGAGAUCGGAAGAGCACACGU
B21: target 1 insC 3' of 13,insG 3' of 9 (mixed)
RNA 1: CACCCGUGCAAAAAUGCAGGGGUCUAAAACUGAGCGGAUAACCUCUCUAUGG
RNA 2: GGGAAUGGAUCCACAUCUACGAAUUCGUACCAUAGAGAGCGUUAGUCCGCUCACCGAGAUCGGAAGAGCACACGU
B22: target 1 A1C,G17A (mixed)
RNA 1: CACCCGUGCAAAAAUGCAGGGGUCUAAAACUGAGCGGAUAACCUCUCUAUGG
RNA 2: GGGAAUGGAUCCACAUCUACGAAUUCGUACCAUAAAGAGGUUAUCCGCUCCCCGAGAUCGGAAGAGCACACGU
B23: target 1 G5U,C7U (mixed)
RNA 1: CACCCGUGCAAAAAUGCAGGGGUCUAAAACUGAGCGGAUAACCUCUCUAUGG
RNA 2: GGGAAUGGAUCCACAUCUACGAAUUCGUACCAUAGAGAGGUUAUUCUCUCACCGAGAUCGGAAGAGCACACGU
B24: target 1 A1U,G17A (mixed)
RNA 1: CACCCGUGCAAAAAUGCAGGGGUCUAAAACUGAGCGGAUAACCUCUCUAUGG
RNA 2: GGGAAUGGAUCCACAUCUACGAAUUCGUACCAUAAAGAGGUUAUCCGCUCUCCGAGAUCGGAAGAGCACACGU

The binders below were run against T1, EsCas13d, nuclease-dead (assay: crRNA (strand 1, pre-loaded); Mg2+; 40 mM Tris-HCl pH 7.5, 150 mM NaCl, 6 mM MgCl2, 1 mM DTT, 0.1% Tween-20, 0.2 mg/ml BSA; 25 C; 10 min per concentration, then washed). Settings: tags: His6-TwinStrep-SUMO cleaved; N-terminal SNAP kept (SNAP-Surface 488); label: 3' end held by stalled T7 RNA polymerase.
Work on B1 yielded a Kd of 28.1 ± 1.7 nM.
B2 showed a Kd of 50 ± 12 nM.
Binder B3 has a Kd of 26 ± 5 nM.
B4 was tested, and the Kd was 10.1 ± 0.4 nM.
B5 gave a Kd of 33.5 ± 2.9 nM.
In the case of B6, the Kd is reported as 41 ± 8 nM.
For B7, the Kd was 14.2 ± 0.4 nM.
With B8 the Kd was 7.33 ± 0.33 nM.
Work on B9 yielded a Kd of 27.4 ± 1.7 nM.
With B10 the Kd was 7.45 ± 0.24 nM.
B11 showed a Kd of 72 ± 15 nM.
Binder B12 has a Kd of 64 ± 7 nM.
B13 was tested, and the Kd was 45 ± 6 nM.
B14 was tested, and the Kd was 15.2 ± 0.6 nM.
In the case of B15, the Kd is reported as 34.1 ± 2.7 nM.
With B16 the Kd was 13.1 ± 1 nM.
Work on B17 yielded a Kd of 13.9 ± 0.7 nM.
B18 showed a Kd of 47 ± 19 nM.
For B19, the Kd was 35.7 ± 2 nM.
B20 gave a Kd of 49 ± 5 nM.
For B21, the Kd was 13 ± 0.9 nM.
For B22, the Kd was roughly 45 nM.
B23 gave a Kd of 53 ± 6 nM.
Binder B24 has a Kd of 36 ± 10 nM.
